Results taken from patent US20040132096A1 (GlaxoSmithKline, published 2004).

T1: Nogo-A (Homo sapiens (Human), UniProt Q9NQC3 1-1192)
T1 sequence: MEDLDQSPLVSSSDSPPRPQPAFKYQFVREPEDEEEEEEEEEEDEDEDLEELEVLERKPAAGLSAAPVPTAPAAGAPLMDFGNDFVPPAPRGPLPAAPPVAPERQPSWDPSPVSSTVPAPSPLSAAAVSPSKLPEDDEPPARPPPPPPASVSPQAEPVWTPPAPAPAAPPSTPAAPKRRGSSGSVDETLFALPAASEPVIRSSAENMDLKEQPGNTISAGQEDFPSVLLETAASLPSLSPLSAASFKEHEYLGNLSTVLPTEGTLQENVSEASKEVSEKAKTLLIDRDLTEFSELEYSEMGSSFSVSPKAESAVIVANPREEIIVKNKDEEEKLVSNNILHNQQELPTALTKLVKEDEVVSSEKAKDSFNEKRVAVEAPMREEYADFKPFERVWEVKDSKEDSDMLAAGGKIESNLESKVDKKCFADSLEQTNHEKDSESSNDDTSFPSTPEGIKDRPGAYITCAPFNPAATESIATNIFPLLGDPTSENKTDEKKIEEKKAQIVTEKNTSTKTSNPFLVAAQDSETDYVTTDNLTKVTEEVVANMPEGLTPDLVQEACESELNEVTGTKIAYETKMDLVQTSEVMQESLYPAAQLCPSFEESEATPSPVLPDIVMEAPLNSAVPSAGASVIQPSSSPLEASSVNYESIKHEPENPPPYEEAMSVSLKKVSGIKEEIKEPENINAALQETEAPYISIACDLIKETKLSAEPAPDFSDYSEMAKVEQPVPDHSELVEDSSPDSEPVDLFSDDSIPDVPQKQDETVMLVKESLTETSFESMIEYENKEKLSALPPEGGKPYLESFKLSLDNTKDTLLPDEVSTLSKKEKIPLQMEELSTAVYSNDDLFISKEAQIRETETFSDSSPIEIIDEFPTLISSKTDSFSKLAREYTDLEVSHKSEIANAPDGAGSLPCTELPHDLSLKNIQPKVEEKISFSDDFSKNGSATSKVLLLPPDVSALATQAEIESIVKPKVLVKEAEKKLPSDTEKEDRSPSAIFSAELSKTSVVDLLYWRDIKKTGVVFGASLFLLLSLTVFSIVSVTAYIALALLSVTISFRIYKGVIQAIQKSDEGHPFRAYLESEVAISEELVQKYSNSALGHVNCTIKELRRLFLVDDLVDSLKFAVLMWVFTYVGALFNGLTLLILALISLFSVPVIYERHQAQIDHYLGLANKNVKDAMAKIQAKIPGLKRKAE

B1: Asp2/BACE-myc (enzyme, not shown: small tags and cut ends)
chain: ETDEEPEEPGRRGSFVEMVDNLRGKSGQGYYVEMTVGSPPQTLNILVDTGSSNFAVGAAPHPFLHRYYQRQLSSTYRDLRKGVYVPYTQGKWEGELGTDLVSIPHGPNVTVRANIAAITESDKFFINGSNWEGILGLAYAEIARPDDSLEPFFDSLVKQTHVPNLFSLQLCGAGFPLNQSEVLASVGGSMIIGGIDHSLYTGSLWYTPIRREWYYEVIIVRVEINGQDLKMDCKEYNYDKSIVDSGTTNLRLPKKVFEAAVKSIKAASSTEKFPDGFWLGEQLVCWQAGTTPWNIFPVISLYLMGEVTNQSFRITILPQQYLRPVEDVATSQDDCYKFAISQSSTGTVMGAVIMEGFYVVFDRARKRIGFAVSACHVHDEFRTAAVEGPFVTLDMEDCGYNIPQTDESTLMTIAYVMAAICALFMLPLCLMVCQWRCLRCLRQQHDDFADDISLLK
notes: It was transiently transfected into SHSY5Y-APPswe cells; also called BACE/Asp2

Tests used:
Nogo-A = target: T1, Nogo-A; assay: co-localisation by immunofluorescence in double-transfected SHSY5Y-APPswe cells
Description: (§1) cDNAs encoding Nogo isoforms were transfected into cultured SHSY5Y-APPswe cells and expressed proteins detected in fixed cells with immunohistochemistry. Asp2 was detected using a c-terminal myc epitope (FIG. 3A left panel) while the Nogo-A (FIG. 3A right panel) and B isoforms were detected using isoform specific rabbit polyclonal antibodies (designated 67 and 66 respectively or monoclonal Anti-Nogo-A 6D5 as indicated in the figure legends). These experiments confirm that it is possible to overexpress these proteins in this cellular background and can be used as the basis of an assay for modulators of Nogo influenced APP processing.

Asp2/BACE-myc = target: B1; assay: as above
Description: as §1

Binder	binding result (Nogo-A)	binding result (Asp2/BACE-myc)
B1	binds	
NogoB (ASY) (other) MEDLDQSPLVSSSDSPPRPQPAFKYQFVREPEDEEEEEEEEEEDEDEDLEELEVLERKPAAGLSAAPVPTAPAAGAPLMDFGNDFVPPAPRGPLPAAPPVAPERQPCWDPSPVSSTVPAPSPLSAAAVSPSKLPQDDEPPARPPPPPPASVSPQAEPVWTPPAPAPAAPPSTPAAPKRRGSSGSVVVDLLYWRDIKKTGVVFGASLFLLLSLTVFSIVSVTAYIALALLSVTISFRIYKGVIQAIQKSDEGHPFRAYLESEVAISEELVQKYSNSALGHVNCTIKELRRLFLVDDLVDSLKFAVLMWVFTYVGALFNGLTLLILALISLFSVPVIYERHQAQIDHYLGLANKNVKDAMAKIQAKIPGLKRKAE		binds
